{
  "source": "paper PMC7494861",
  "about": "“Characterization of the nucleotide-binding domain NsrF from the BceAB-type ABC-transporter NsrFP from the human pathogen Streptococcus agalactiae” (Scientific Reports, 2020)",
  "test_in_all_cases": "purified protein",
  "format_in_all_cases": "biochemical, Streptococcus agalactiae",
  "conditions_in_all_cases": "100 mM HEPES pH 7, 10 mM Mg2+, 0 mM NaCl, 30 °C, cooperative",
  "key": {"[1]": {"system": "O=c1ccn([C@@H]2O[C@H](COP(=O)(O)OP(=O)(O)OP(=O)(O)O)[C@@H](O)[C@H]2O)c(=O)[nH]1", "source_text": "(§1) malachite green phosphate release, Hill fit on SaNsrF (SaNsrFWT)"}, "[2]": {"system": "Nc1ccn([C@@H]2O[C@H](COP(=O)(O)OP(=O)(O)OP(=O)(O)O)[C@@H](O)[C@H]2O)c(=O)n1", "source_text": "as §1"}, "[3]": {"system": "Nc1nc2c(ncn2[C@@H]2O[C@H](COP(=O)(O)OP(=O)(O)OP(=O)(O)O)[C@@H](O)[C@H]2O)c(=O)[nH]1", "source_text": "as §1"}},
  "data": [
    {"substance": "SaNsrF (SaNsrFWT) (Streptococcus agalactiae 2603V/R)", "values": [
      {"measurement": "K0.5", "setting": "[1]", "value": "0.90 ± 0.13", "unit": "mM"},
      {"measurement": "Vmax", "setting": "[1]", "value": "314.8 ± 23.4", "unit": "nmol/min/mg"},
      {"measurement": "K0.5", "setting": "[2]", "value": "1.23 ± 0.20", "unit": "mM"},
      {"measurement": "Vmax", "setting": "[2]", "value": "339.0 ± 30.4", "unit": "nmol/min/mg"},
      {"measurement": "K0.5", "setting": "[3]", "value": "0.69 ± 0.07", "unit": "mM"},
      {"measurement": "Vmax", "setting": "[3]", "value": "221.6 ± 11.1", "unit": "nmol/min/mg"}
    ]}
  ]
}
